Assay: yeast display, Sf9 membrane polyspecificity reagent, FACS + sequencing; frameworks hold sequencing errors
Procedure, shortened: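 Nanobodies came from a synthetic yeast display library in Saccharomyces cerevisiae BJ5465, induced with galactose for 36–48 hours and stained for 1 hour at 4 °C with 10% biotinylated, detergent-solubilized Sf9 membrane reagent. Cells were enriched on streptavidin microbeads and then FACS-sorted, with low and high (top ~1%) gates set on anti-HA fluorescence for expression and streptavidin fluorescence for reagent binding. Each polyreactivity label reflects the gate a clone came from. Genes were amplified by colony PCR, sequenced by MiSeq 2 × 250 and filtered by CDR length.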

Row | Sequence | polyreactivity (PSR sort gate)
1 | QVQLVESGGGLVQAGGSLRLSCAASGIIFYIYTMAWYRQAPGKERELVAAINRSGSRTYYADSVKGRFTISRDNAKNTVYLQMNSLKPEDTAVYYCAAGTGSRDDYWGQGTQVTVSS | high polyreactivity
2 | QVQLVESGGGLVQAGGSLRLSCAASGIIFYLYAMGWYRQARGKEWELVAAISRRGVSTYYADSLMGRFTISRDNAKNTVYLQMNSLKPEDTAVYYCAAAGFGYTGEEYWGQGTQVTVSS | high polyreactivity
3 | QVQLVESGGGLVQAGGSLRLSCAASGIIFYPNAMGWYRQAPGKERELVAAISWRSGSTYYADSVKGRFTISRDNAKNTVYLQMNSLKPEDTAVYYCAADRRRSYIWRYDYWGQGTQVTVSS | low polyreactivity
4 | QVQLVESGGGLVQAGGSLRLSCAASGIIFYPYAMGWYRQAPGKERELVAGISWSGGRTYYADSVKGRFTISRDNAKNTVYLQMNSLKPEDTAVYYCAARYRQRAYDYWGQGTQVTVSS | high polyreactivity
5 | QVQLVESGGGLVQAGGSLRLSCAASGIIFYPYAMGWYRQEPGKERYLVASISSGGDTNYADSVKGRFTISRDNAKNTVYLQMNSLKPEDTAVYYCAARVRVQYWWEYYYWGQGTQVTVSS | high polyreactivity
6 | QVQLVESGGGLVQAGGSLRLSCAASGIIFYQYAMGWYRQAHGKERELVAAISSRGGSTYYADSVKGRFTISLDNAKNTVYLLMNSLKPEDTAVYYCAAGSTGSTDGYWGQGTQVTVSS | high polyreactivity
7 | QVQLVESGGGLVQAGGSLRLSCAASGIIFYRYAMGWYRQAPGKERELVAAINTSGGRTYYADSVKGRFTISRDNAKNTVYLQMNSLKPEDTAVYYCAAYYSPVGFQYDYWGQGTQVTVSS | high polyreactivity
8 | QVQLVESGGGLVQAGGSLRLSCAASGIIFYSNAMGWARQAPGKETELVAGISKSGGSTYYADSVKGRFTISRDNAQNTVYLQMHSLKPEDTAVYYCAVRGGGRYRSWGYDYWGQGTQVTVSS | high polyreactivity
9 | QVQLVESGGGLVQAGGSLRLSCAASGIIFYSYAMGWYRQAPGKERELVAAISRRGTSTFYADSVKGRFTISRDNAKNTVYLQMNSLKPEDTAVSYCNARYKYYRGSGMDSWGQGTQVTVSS | high polyreactivity
10 | QVQLVESGGGLVQAGGSLRLSCAASGIIFYSYTMGWYRQAPGKERELVAAISRNGGGTYYADSEKGRFTISRDNAKNTVYLQMNSLNPEETAVYYCAAEVDQWYYRGYDYWGQGTQVTVSS | high polyreactivity
11 | QVQLVESGGGLVQAGGSLRLSCAASGIIFYVNAMGWYRQAPGKERELVAAITFGGDSTYYADSVKGRFTISRDNAKNTVYLQMNSLKPEDTAVYYCAADYVALYYWYDYWGQGTQVTVSS | low polyreactivity
12 | QVQLVESGGGLVQAGGSLRLSCAASGIIFYWYAMGWYRQSPGKERELVATITSTGGSTNYADSVKGRFTISRDNAKNTVYLQMNSLKPEDTAVYYCNADRYGIYYYSRLPFDYWGQGTQVTVSS | low polyreactivity
13 | QVQLVESGGGLVQAGGSLRLSCAASGIIFYYYAMGWYRPAPGKERELVAAITSSGVRTYYADSVKGRFTLSRDTAKNTVYLQMNSLKPEDTAVYYCAASVSWPRVSQRARYGYYYWGQGTQVTVSS | high polyreactivity
14 | QVQLVESGGGLVQAGGSLRLSCAASGIIFYYYAMGWYRQAPGKERELVAAISWSGDGTYYADSVKGRFTISRDKAKNTVYLQMNSLKPEDTAVYYCAALNDGFTGYDYLDEYTDYGYWGQGTQVTVSS | low polyreactivity
15 | QVQLVESGGGLVQAGGSLRLSCAASGIIFYYYVMGWYRQAPGKERELVAAISRSGGRTRYADSVKGRFTISRDNAKNTVYLQMNSLKPEDTAVYYCAAVGSVNYDADFDYWGQGTQVTVSS | high polyreactivity
16 | QVQLVESGGGLVQAGGSLRLSCAASGIIIDSNAMGWYRQAPGKERELVADITSGGSTKYADSVKGRFTISRDNAKNTVYLQMNSLKPEDTAVYYCNADFRPADQWSYFYEMDSWGQGTQVTVSS | low polyreactivity
17 | QVQLVESGGGLVQAGGSLRLSCAASGIIIDTNAMGWYRQAPGTERELVASISKRGGSTYYADSVKGRFTISRDNAKNTVYLQMNSLKPEDTAVYYCNALRRRQYHDDYWGQGTQVTVSS | high polyreactivity
18 | QVQLVESGGGLVQAGGSLRLSCAASGIIIDYYAMGWYRQAPGKERELVAAITSGGSTSYADSVKGRFTISRDNAKNTVYLQMNSLKPEDTAVYYCNTEPSGYESGYWGQGTQVTVSS | low polyreactivity
19 | QVQLVESGGGLVQAGGSLRLSCAASGIIIDYYTMGWYRQAPGKERELVAAINKSGGSTYADSVKGRFTISRDNAKNTVYLQMKSLKPEDTAVYYCAAEVDYSDWPEYARKYYYWGQGTQVTVSS | low polyreactivity
20 | QVQLVESGGGLVQAGGSLRLSCAASGIIIDYYTMGWYRQAPGKERELVAAINKSGGSTYADSVKGRFTISRDNAKNTVYLQMNSLKPEDTAVYYCAAEVDYSYSPEYARKYYYWGQGTQVTVSS | low polyreactivity
21 | QVQLVESGGGLVQAGGSLRLSCAASGIIIQINAMGWYRQAPGKERELVAAITIDGTTNYADSVKGRFTISRDNAKNTVYLQMNSLKPEDTAVYYCARRRSVYVWEPYQYDYWGQGTQVTVSS | low polyreactivity
22 | QVQLVESGGGLVQAGGSLRLSCAASGIIIRYYGMGWYRQAPGKERELVARIRWTGGSTYYADSVKGRFTISRDNAKNTVYLQMNSLKPEDTAVYYCAAQWKYRQSYLDYYWGQGTQVTVSS | low polyreactivity

Row | Sequence | polyreactivity (PSR sort gate)
23 | QVQLVESGGGLVQAGGSLRLSCAASGIILGKNAMGWYRQAPGKERELVASITSGAGITYYADSVKGRFTISRDTAKNTVYLQMNSLKPEDTAVYYCNTYPYLWGQGTQVTVSS | low polyreactivity
24 | QVQLVESGGGLVQAGGSLRLSCAASGIILGPYAMGWYRQAPGKERELVAAISWRGGSTYYADSVKGRFTISRDNAKNTVYLQMNSLKPEDTAVYYCATASRTSRTGWAGYYWGQGTQVTVSS | high polyreactivity
25 | QVQLVESGGGLVQAGGSLRLSCAASGIILPYYVMGWYRQAPGKEREFVADITWSGGSTYYADSVKARFTISRDNAKNTVYLQMNSLKPEDTAVYYCAAEGQWYYFFDMDYWGQGTQVTVSS | high polyreactivity
26 | QVQLVESGGGLVQAGGSLRLSCAASGIILREYTMGWYRQAPGKERELVAAISGSGGSTYYADSVKGRFTISRDNAKNTVYLQMNSLKPDDTAVYYCNAVIAAKARDAVVGSGMDYWGQGTQVTVSS | high polyreactivity
27 | QVQLVESGGGLVQAGGSLRLSCAASGIILSLYAMGWYRQAPGKERELVATIRFSGGSTYYADSVKGRFTISRDNAKNTVYLQMNSLKPEDTAVYYCNKHLATTFTVSRFDYWGQGTQVTVSS | low polyreactivity
28 | QVQLVESGGGLVQAGGSLRLSCAASGIILTEYAMGWYRQAPGKERELVAAINRVGSTNYADSVKGRFTISRDNAKNTVYLQMNSLKPEDTAVYYCAAGTYYNDYDYWGQGTQVTVSS | low polyreactivity
29 | QVQLVESGGGLVQAGGSLRLSCAASGIILVQYVMGWYRQAPGKERELVASISRTGGSTYYADSVKGRFTISRDNAKNTVYLQMNSLKPEDTAVYYCAALAYRYSYPRGYWGQGTQVTVSS | high polyreactivity
30 | QVQLVESGGGLVQAGGSLRLSCAASGIILYFYDMGWYRQAPGKERELVAVITGGGGSTYYADSVKGRFTISRDNAMNTVYLQMNSLKPEDTAVYYCAALPWFPDEEYDYWGQGTQVTVSS | high polyreactivity
31 | QVQLVESGGGLVQAGGSLRLSCAASGIILYVYGMGWYRQAPGKERELVATITWSDGGTYYADSVKGRFTISRDNAKNTVYLQMNSLKPEDTAVYYCNVVVVNGWVTTPGYDYWGQGTQVTVSS | low polyreactivity
32 | QVQLVESGGGLVQAGGSLRLSCAASGIILYYNAMGWYRQAPGKERALVAAITTSGVSTYYADSVKGRFTISRDNAKNTVYLQMNSLKPEDTAVYYCNADYLYGRYTYDYWGQGTQVTVSS | low polyreactivity
33 | QVQLVESGGGLVQAGGSLRLSCAASGIILYYYAMGWYRQAPGKERELVAAINWSGGSTSYADSVKGRFTISRDNAKNTVYLQMNSLKPEDTAVYYCAARLGSWHYQVWNDKYEYWGQGTQVTVSS | high polyreactivity
34 | QVQLVESGGGLVQAGGSLRLSCAASGIILYYYAMGWYRQAPGKERELVASISRGDSTNYADSVKGRFTISRDNAKNTVYLQMNSLKPEDTAVYCNKDYLPSLYRGFDYWGQGTQVTVSS | low polyreactivity
35 | QVQLVESGGGLVQAGGSLRLSCAASGIIQPRYAMGWYRQAPGKERELVAAISRGGGTYYADSVKGRFTISRDNAKNTVYLQMNSLIPEYSAVYNCASAYVFVGSSHYYWGQGTQVTVSS | high polyreactivity
36 | QVQLVESGGGLVQAGGSLRLSCAASGIISSVYAMGWYRQAPGKERELVAAISGSGGSTYYADSVKGRFTISRDNAKNTVYLQMNSLKPEDTAVYYCAIGYQYQGNSYGYWGQGTQVNVSS | low polyreactivity
37 | QVQLVESGGGLVQAGGSLRLSCAASGIISSVYAMGWYRQAPVKERELVAAISGSGGSTYYADSVKGRFTISRDNAKNTVYLQMNSLTPEDTAVYYCAKGYQYQGNSYGYWGQGTQVTVSS | low polyreactivity
38 | QVQLVESGGGLVQAGGSLRLSCAASGIISYLYAMGCYRQAPGKEREWVAVIRTSDAITYYADSVKGRFTISRDNAKNTVYLQMNSLKPQDTAVYYCAAAGYAWWGEYEYWGQGTLVTVSS | high polyreactivity
39 | QVQLVESGGGLVQAGGSLRLSCAASGIISYRYGMGWYRQAPGKEGELVAAISWSGGSTYYADSVKGRFTISRDNAKNTVYLQMNSRKPEDTAVYYCAAYWRQAGVFKIYDYWGQGTQVTVSS | high polyreactivity
40 | QVQLVESGGGLVQAGGSLRLSCAASGIIVYYYAMGWYRPAPGKERELVAAISTSGTRTFYADSVKGRFTISRDNAKKTVYLQMNSLKPEDTAVYYCAARIYKPQRCTSLYRTSGYWGQGTQVTVSS | high polyreactivity
41 | QVQLVESGGGLVQAGGSLRLSCAASGIIYKYAMGWYRQAPGKERELVAAISSGASTNYADSVKGRFTISRDNAKNTVYLQMNSLKPEDTAVYYCNVTTGASFEFDYWGQGTQVTVSS | low polyreactivity
42 | QVQLVESGGGLVQAGGSLRLSCAASGIIYRQNAMGWYRQATRKEREFVAAISSGGNTYYADSVKGRFTISRDNAKNTVYLQMNSLKPEDTGFYYCAADVEDRYHRAWFDYWGQGTKVTVSS | low polyreactivity
43 | QVQLVESGGGLVQAGGSLRLSCAASGIIYWVNAMGWYRQAPGKERELVAVINRGTYYADSVKGRFTISRDNAKNTVYLQMNSLKPEDTAVYYRYAYTSTTEYDYWGLGTQVTVSS | low polyreactivity

From the nanobody polyreactivity screen of Harvey et al. (2022)
